pIC50: −log10 of the molar value.
Assays:
[1] = target: IL-17A/A dimer (Homo sapiens (Human)) (UniProt Q16552)
[2] = target: IL-17A/F dimer (Homo sapiens (Human)) (UniProt Q16552)
[3] = target: IL-17A/A dimer (Homo sapiens (Human)) (UniProt Q16552); assay: Alphascreen (protein-protein interaction assay); inhibition of IL17AA with IL-17RA
[4] = target: IL-17A/F dimer (Homo sapiens (Human)) (UniProt Q16552); assay: Alphascreen (protein-protein interaction assay); inhibition of IL17AF with IL-17RA
[5] = target: IL-17F/F dimer (Homo sapiens (Human)) (UniProt Q96PD4); assay: Alphascreen (protein-protein interaction assay); inhibition of IL17FF with IL-17RC
UniProt Q96PD4, sequence (Q96PD4 31-163 limits assumed): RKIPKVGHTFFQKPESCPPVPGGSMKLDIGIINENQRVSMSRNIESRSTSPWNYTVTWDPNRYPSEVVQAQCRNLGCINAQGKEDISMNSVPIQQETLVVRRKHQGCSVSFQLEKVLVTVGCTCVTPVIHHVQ

Substance sonelokimab (VHH) has a % inhibition of CCL20 expression (TNF + IL17A/A stimulation) in keratinocytes, SLK 0.1 µg/mL [1] of -66%, a % inhibition of CCL20 expression (TNF + IL17A/A stimulation) in keratinocytes, SLK 1 µg/mL [1] of -66% and a % inhibition of CXCL8 expression (TNF + IL17A/A stimulation) in keratinocytes, SLK 0.1 µg/mL [1] of -73%. The % inhibition of CXCL8 expression (TNF + IL17A/A stimulation) in keratinocytes, SLK 1 µg/mL [1] was -88%, the % inhibition of CCL20 expression (TNF + IL17A/F stimulation) in keratinocytes, SLK 0.1 µg/mL [2] was -75% and the % inhibition of CCL20 expression (TNF + IL17A/F stimulation) in keratinocytes, SLK 1 µg/mL [2] was -53%. For the same substance, the % inhibition of CXCL8 expression (TNF + IL17A/F stimulation) in keratinocytes, SLK 0.1 µg/mL [2] was -61%, the % inhibition of CXCL8 expression (TNF + IL17A/F stimulation) in keratinocytes, SLK 1 µg/mL [2] was -68% and the pIC50 [3] was 10.41. The pIC50 [4] was 10.18 and the pIC50 [5] was 10.89.

Reference: patent US20250251406A1
